{
  "source": "paper PMC4631838",
  "about": "“Molecular architecture of the yeast Mediator complex” (eLife, 2015)",
  "binders": {"B1": {"name": "Med7, Mediator Middle module subunit (natural protein, S. cerevisiae, UniProt Q08278 1-222, looked up)", "chain": "MSNDPGNEVSSLYPPPPPYVKFFTQSNLEKLPKYKEKKAASAKQTAPNNSNGGSEEEITCALDYLIPPPMPKNQQYRAFGSIWQVKDQLPDLESMGLTQLYKKSTENESTNYQYKIQELRKLLKSLLLNYLELIGVLSINPDMYERKVENIRTILVNIHHLLNEYRPHQSRESLIMLLEEQLEYKRGEIREIEQVCKQVHDKLTSIQDTLRTGSQSPPSSSQ", "notes": "Med7, S. cerevisiae, endogenous; source: endogenous, S. cerevisiae CB010 double-tagged strain; within the purified native holoenzyme"}, "B2": {"name": "Med21, Mediator Middle module subunit (natural protein, S. cerevisiae, UniProt P47822 1-140, looked up)", "chain": "MTDRLTQLQICLDQMTEQFCATLNYIDKNHGFERLTVNEPQMSDKHATVVPPEEFSNTIDELSTDIILKTRQINKLIDSLPGVDVSAEEQLRKIDMLQKKLVEVEDEKIEAIKKKEKLLRHVDSLIEDFVDGIANSKKST", "notes": "Med21 (printed old name Sbr7), S. cerevisiae, endogenous; also called Sbr7; source: endogenous, S. cerevisiae CB010 double-tagged strain; within the purified native holoenzyme"}, "B3": {"name": "Med9 (Cse2), Mediator Middle module subunit (natural protein, S. cerevisiae, UniProt P33308 1-149, looked up)", "chain": "MNLQNNVLNQIHQILLPTNPTLDKPNAEATKEEFSSAENRDEKDYLTNQQPKNLSTPSTSSNGEFIPHIFYSLHQIRKDPNNLSNQLETLTGSIRHRLKLCKSLISENEDTKDLLSKSPSEWQDIIHQREQELQIKRDVLDDLYRKLQR", "notes": "Med9 (Cse2), S. cerevisiae, endogenous; source: endogenous, S. cerevisiae CB010 double-tagged strain; within the purified native holoenzyme"}},
  "test_in_all_cases": "cross-linking; BS3 (unlabeled, or 50:50 with 2H12-labeled BS3) on the purified native holoenzyme; 150 mM NaPO4, 150 mM KOAc, pH 7.5, 5% glycerol, 2 mM DTT; procedure A 2.7 mM reagent 120 min on ice; trypsin digest, LC-MS/MS, Protein Prospector",
  "settings_in_all_cases": "both partners purified",
  "key": {"[1]": {"molecular_target": "T1, Med17 (Srb4), Mediator Head module subunit (S. cerevisiae, UniProt P32569 1-687)", "T1 construct": "Med17 (Srb4), S. cerevisiae, endogenous, residues 1-687 spoken of; cross-linking was done after cleavage; also called Med17p; source: endogenous, S. cerevisiae CB010 double-tagged strain; within the purified native holoenzyme; not shown: TAP, N-terminal, cleaved", "T1 sequence (looked up)": "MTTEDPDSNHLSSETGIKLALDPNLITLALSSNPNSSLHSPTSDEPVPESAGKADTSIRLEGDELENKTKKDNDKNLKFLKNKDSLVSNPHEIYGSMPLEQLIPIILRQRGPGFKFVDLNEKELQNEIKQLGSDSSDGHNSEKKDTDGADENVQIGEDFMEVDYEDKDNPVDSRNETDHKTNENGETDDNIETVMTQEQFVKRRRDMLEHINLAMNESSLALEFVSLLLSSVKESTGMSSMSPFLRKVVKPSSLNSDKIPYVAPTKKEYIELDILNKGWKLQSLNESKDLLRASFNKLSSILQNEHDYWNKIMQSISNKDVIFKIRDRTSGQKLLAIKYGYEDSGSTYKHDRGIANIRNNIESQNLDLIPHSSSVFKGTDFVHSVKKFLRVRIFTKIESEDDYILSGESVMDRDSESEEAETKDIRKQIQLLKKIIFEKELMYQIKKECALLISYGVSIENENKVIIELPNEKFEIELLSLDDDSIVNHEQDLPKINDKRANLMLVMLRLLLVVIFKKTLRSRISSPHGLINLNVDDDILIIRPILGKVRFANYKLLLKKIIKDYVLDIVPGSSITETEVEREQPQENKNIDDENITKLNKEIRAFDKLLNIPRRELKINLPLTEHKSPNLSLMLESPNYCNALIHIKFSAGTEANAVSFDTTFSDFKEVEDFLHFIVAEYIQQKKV"}, "[2]": {"molecular_target": "T2, Med14 (Rgr1), Mediator subunit (S. cerevisiae, UniProt P19263 1-1082)", "T2 construct": "Med14 (Rgr1), S. cerevisiae, endogenous, residues 1-1082 spoken of; source: endogenous, S. cerevisiae CB010 double-tagged strain; within the purified native holoenzyme", "T2 sequence (looked up)": "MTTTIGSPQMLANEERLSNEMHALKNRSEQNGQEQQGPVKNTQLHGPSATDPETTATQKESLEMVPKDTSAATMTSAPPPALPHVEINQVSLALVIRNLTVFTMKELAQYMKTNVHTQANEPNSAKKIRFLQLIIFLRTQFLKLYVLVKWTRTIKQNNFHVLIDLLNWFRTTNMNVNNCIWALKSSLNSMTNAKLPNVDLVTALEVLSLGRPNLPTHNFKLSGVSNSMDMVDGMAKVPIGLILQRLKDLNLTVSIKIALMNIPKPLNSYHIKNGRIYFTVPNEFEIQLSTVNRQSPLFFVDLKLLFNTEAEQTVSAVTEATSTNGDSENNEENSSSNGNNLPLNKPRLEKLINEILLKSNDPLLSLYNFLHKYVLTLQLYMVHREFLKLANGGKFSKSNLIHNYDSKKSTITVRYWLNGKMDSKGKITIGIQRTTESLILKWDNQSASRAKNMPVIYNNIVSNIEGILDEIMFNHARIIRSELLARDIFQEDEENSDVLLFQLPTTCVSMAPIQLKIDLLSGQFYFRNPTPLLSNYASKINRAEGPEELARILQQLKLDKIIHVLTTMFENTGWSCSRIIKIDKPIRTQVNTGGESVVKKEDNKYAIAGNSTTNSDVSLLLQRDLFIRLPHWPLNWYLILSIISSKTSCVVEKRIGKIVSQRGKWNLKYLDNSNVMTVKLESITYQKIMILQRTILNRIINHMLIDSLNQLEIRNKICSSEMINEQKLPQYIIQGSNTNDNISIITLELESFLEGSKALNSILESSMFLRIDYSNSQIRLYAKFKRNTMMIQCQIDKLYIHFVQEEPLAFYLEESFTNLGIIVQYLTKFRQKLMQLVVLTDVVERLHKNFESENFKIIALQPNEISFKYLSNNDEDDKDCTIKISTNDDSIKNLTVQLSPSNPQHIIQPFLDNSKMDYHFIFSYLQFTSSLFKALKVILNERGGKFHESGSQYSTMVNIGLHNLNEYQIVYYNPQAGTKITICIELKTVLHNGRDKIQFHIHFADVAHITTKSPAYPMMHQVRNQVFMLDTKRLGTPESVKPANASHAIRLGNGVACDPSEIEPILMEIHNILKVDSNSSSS"}, "[3]": {"molecular_target": "T3, Med1, Mediator Middle module subunit (S. cerevisiae, UniProt Q12321 1-566)", "T3 construct": "Med1, S. cerevisiae, endogenous; source: endogenous, S. cerevisiae CB010 double-tagged strain; within the purified native holoenzyme", "T3 sequence (looked up)": "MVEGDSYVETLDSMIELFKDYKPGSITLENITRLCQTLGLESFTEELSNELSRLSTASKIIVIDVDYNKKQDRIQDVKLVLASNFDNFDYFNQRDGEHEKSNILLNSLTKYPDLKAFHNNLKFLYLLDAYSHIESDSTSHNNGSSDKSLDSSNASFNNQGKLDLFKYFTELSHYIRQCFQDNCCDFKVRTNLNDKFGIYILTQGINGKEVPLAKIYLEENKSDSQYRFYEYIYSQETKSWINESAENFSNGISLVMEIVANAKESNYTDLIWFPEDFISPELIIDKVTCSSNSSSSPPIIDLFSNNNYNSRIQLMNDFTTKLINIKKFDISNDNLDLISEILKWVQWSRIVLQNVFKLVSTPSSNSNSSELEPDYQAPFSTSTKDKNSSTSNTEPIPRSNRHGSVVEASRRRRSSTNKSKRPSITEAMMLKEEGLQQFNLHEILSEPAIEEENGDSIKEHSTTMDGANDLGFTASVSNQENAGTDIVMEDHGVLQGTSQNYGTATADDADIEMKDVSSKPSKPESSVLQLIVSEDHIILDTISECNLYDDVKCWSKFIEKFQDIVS"}},
  "data": [
    {"binder": "B1", "values": [
      {"measurement": "binding result", "setting": "[1]", "value": "binds"}
    ]},
    {"binder": "B2", "values": [
      {"measurement": "binding result", "setting": "[1]", "value": "binds"},
      {"measurement": "binding result", "setting": "[2]", "value": "binds"}
    ]},
    {"binder": "B3", "values": [
      {"measurement": "binding result", "setting": "[3]", "value": "binds"},
      {"measurement": "binding result", "setting": "[2]", "value": "binds"}
    ]}
  ]
}
